Results as given in paper PMC2779421.
Values joined by “and” are separate entries in the source; they are usually repeats but may differ in a detail not shown here. Equal values may be shown once.

Columns and labels:
[1] = molecular target: β-Amyloid peptide Aβ-(1–40); assay: filtration
[2] = molecular target: β-Amyloid peptide Aβ-(1–40); assay: continuous-wave EPR

Spin-labeled Cys-(Aβ) (40 residue Aβ peptide variant containing an N-terminal cysteine, labeled with MTSL)
% of the slow component (larger aggregates) in the total spectrum, retentate [1]: 34%
% of the slow component (larger aggregates) in the total spectrum, 5–6 h [2]: 34%
stoichiometry N [2]: 8 molecules and 15 molecules
